Patent publication US20250066499A1 (SUNSHINE GUOJIAN PHARMACEUTICAL SHANGHAI, published 2025)
Residue numbers refer to the chain shown, from its start.

Key:
CD73-ND-his [1] = target: T1, CD73-ND-his (human, UniProt P21589 27-317); test: ELISA as in Example 3, antigen CD73-ND-his, antibody titrated, absorbance 450 nm
T1 construct: Biotinylated and captured on streptavidin in the ELISA
T1 sequence: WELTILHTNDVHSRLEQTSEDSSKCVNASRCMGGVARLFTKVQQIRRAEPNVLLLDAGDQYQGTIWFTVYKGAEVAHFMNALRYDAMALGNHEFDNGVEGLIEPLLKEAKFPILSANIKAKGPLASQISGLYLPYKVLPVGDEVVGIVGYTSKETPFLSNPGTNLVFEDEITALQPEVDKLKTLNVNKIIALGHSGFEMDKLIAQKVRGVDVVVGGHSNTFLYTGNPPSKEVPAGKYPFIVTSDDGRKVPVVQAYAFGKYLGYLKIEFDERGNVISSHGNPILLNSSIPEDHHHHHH

CD73-ND-P139A = target: T2, CD73-ND-P139A (human, UniProt P21589 27-317); test: ELISA, biotinylated antigen on streptavidin plate
T2 construct: Alanine mutant of CD73-ND
T2 sequence: T1 sequence with P139A
Procedure: (§1) The ELISA plates were coated with SA protein diluted to 1.5 μg/mL in coating buffer (50 mM carbonate coating buffer, pH 9.6) and incubated overnight at 4° C. The supernatant was discarded, and the plates were washed three times with PBST. Then, 5% skimmed milk powder prepared with PBS was added for blocking and the plates were incubated for 2 h at 37° C. After washing the plates once with PBST, CD73-biotin protein (prepared by biotinylating CD73-His protein according to the EZ-Link NHS-Biotin Reagent instructions) was diluted to 0.5 μg/mL and added at 100 μL/well for incubation at room temperature for 1 h. The plates were washed three times with PBST, and the prepared murine-derived monoclonal antibodies against human CD73 were serially diluted with 1% BSA buffer prepared with PBST and added to the ELISA plates at 100 μl/well. The plates were incubated at 37° C. for 1 h. After washing the plates three times with PBST, HRP-labeled goat anti-mouse IgG secondary antibody was added and the plates were incubated for 30 min at 37° C. After washing the plates three times with PBST, the residual droplets were patted dry on absorbent paper as much as possible. Then, 100 μl of TMB color developing solution was added to each well, and the plates were incubated in the dark at room temperature for 5 min for color development. Subsequently, 50 μl of 2M H₂SO₄ stop solution was added to each well to terminate the substrate reaction. The OD values were read at 450 nm using a multimode microplate reader to analyze the binding ability of the tested antibodies to the target antigen human CD73-His.
(§2) Referring to the experimental method in Example 3, the affinity of 48A11-HuV33 for various mutant proteins of CD73-ND was determined. The SA protein was diluted to 1 μg/mL for coating the ELISA plates, and the biotinylated CD73 protein (CD73-biotin) was used at a concentration of 0.1 μg/mL.

CD73-ND-V140A = target: T3, CD73-ND-V140A (human, UniProt P21589 27-317); test: ELISA, biotinylated antigen on streptavidin plate
T3 construct: Alanine mutant of CD73-ND
T3 sequence: T1 sequence with V140A
Procedure: as §1, §2

CD73-ND-D142A = target: T4, CD73-ND-D142A (human, UniProt P21589 27-317); test: ELISA, biotinylated antigen on streptavidin plate
T4 construct: Alanine mutant of CD73-ND
T4 sequence: T1 sequence with D142A
Procedure: as §1, §2

CD73-ND-his [2] = target: T1, CD73-ND-his; test: ELISA, biotinylated antigen on streptavidin plate
Procedure: as §1, §2

CD73-ND-L184A = target: T5, CD73-ND-L184A (human, UniProt P21589 27-317); test: ELISA, biotinylated antigen on streptavidin plate
T5 construct: Alanine mutant of CD73-ND
T5 sequence: T1 sequence with L184A
Procedure: as §1, §2

CD73-ND-Y132A = target: T6, CD73-ND-Y132A (human, UniProt P21589 27-317); test: ELISA; decline multiple of EC50 against CD73-ND
T6 construct: Alanine mutant of CD73-ND
T6 sequence: T1 sequence with Y132A
Procedure: as §1, §2

B1: 56B10-HuV31 (antibody, human IgG4, V domains shown)
VH: QVQLQQSGAEVKKPGASVKVSCKASGYTFTRYYIYWVRQRPGQGLEWIGWIYPGNFNTKYNEKFKGRATLTADTSASTAYMELSSLTSEDTAVYYCARDVYDYAGFAYWGQGTLVTVSS
VL: DIQLTQSPSFLSASVGDRVTITCKASQGVATAVAWYQQKPGQSPKLLIYWASTRHTGVPDRFSGSGSGTEFTLTISSLQPEDFATYYCQQYSSYPWTFGQGTKVEIK
notes: Humanized
CD73-ND-his [1]
  EC50 (read off the curve): ~0.08 nM

B2: 48A11-HuV33 (antibody, human IgG4, V domains shown)
VH: QVQLVQSGAEVKKPGASVKVSCKASGYTFTSYWMHWVRQAPGQGLEWIGEINPSIGRTNYNEKFKSRVTLTRDTSTSTAYMELSSLRSEDTAVYYCARRVYGTMDYWGQGTLVTVSS
VL: DIQMTQSPSSLSASVGDRVTITCKASQDINSYLSWFQQKPGKSPKLLIYRANIWVDGVPSRFSGSGSGQDYTFTISSLQPEDIATYYCLQYDELYTFGQGTKVEIK
notes: Humanized
CD73-ND-P139A
  EC50: 4.34 nM
CD73-ND-V140A
  EC50: 0.098 nM
CD73-ND-D142A
  EC50: 0.344 nM
CD73-ND-his [2]
  EC50: 0.178 nM
CD73-ND-L184A
  EC50: 0.612 nM
CD73-ND-Y132A
  Ratio(EC50): 69.2 fold
